{"source": "patent US20030040614", "tested_on": "GsuI restriction endonuclease", "settings": "methylation of top strand; bottom strand 664; B+ buffer, 30 uM AdoMet, 37 C 3 h"}
{"sequence": "AGTTCTGGAGCATCGTTCACCGGTTACAAC / TGGTTGTAACCGGTAACGGATGCTCCAGAACTTCTC [duplex #1 GsuI site]", "values": [{"measurement": "activity (3H radioactivity (units not stated))", "result": 13200}]}
